Reference: publication PMC9757036

B1: T7:P12 (R8-D3) (mixed)
DNA: AATACATAATCGCTCCAGGCAAT
RNA: GCCUGGAGCGC
modifications: primer nt 1-8 RNA, nt 9-11 DNA, 3' ddC
B2: T6:P12 (R8-D3) (mixed)
DNA: AATACATAAGCGCTCCAGGCAAT
RNA: GCCUGGAGCGC
modifications: primer nt 1-8 RNA, nt 9-11 DNA, 3' ddC
B3: T8:P9 (D11) (dsDNA)
DNA 1: AATACATAAACGCTCCAGGCAAT
DNA 2: GCCTGGAGCGC
modifications: primer 3' ddC
B4: T6:P9 (D11) (dsDNA)
DNA 1: AATACATAAGCGCTCCAGGCAAT
DNA 2: GCCTGGAGCGC
modifications: primer 3' ddC
B5: T8:P12 (R8-D3) (mixed)
DNA: AATACATAAACGCTCCAGGCAAT
RNA: GCCUGGAGCGC
modifications: primer nt 1-8 RNA, nt 9-11 DNA, 3' ddC
B6: T7:P9 (D11) (dsDNA)
DNA 1: AATACATAATCGCTCCAGGCAAT
DNA 2: GCCTGGAGCGC
modifications: primer 3' ddC

Each binder was assayed against DNA polymerase alpha catalytic domain (hPolα, hPolαCD) (human, UniProt P09884 335-1257) (assay: BLI).
DNA polymerase alpha catalytic domain (hPolα, hPolαCD), sequence (P09884 335-1257): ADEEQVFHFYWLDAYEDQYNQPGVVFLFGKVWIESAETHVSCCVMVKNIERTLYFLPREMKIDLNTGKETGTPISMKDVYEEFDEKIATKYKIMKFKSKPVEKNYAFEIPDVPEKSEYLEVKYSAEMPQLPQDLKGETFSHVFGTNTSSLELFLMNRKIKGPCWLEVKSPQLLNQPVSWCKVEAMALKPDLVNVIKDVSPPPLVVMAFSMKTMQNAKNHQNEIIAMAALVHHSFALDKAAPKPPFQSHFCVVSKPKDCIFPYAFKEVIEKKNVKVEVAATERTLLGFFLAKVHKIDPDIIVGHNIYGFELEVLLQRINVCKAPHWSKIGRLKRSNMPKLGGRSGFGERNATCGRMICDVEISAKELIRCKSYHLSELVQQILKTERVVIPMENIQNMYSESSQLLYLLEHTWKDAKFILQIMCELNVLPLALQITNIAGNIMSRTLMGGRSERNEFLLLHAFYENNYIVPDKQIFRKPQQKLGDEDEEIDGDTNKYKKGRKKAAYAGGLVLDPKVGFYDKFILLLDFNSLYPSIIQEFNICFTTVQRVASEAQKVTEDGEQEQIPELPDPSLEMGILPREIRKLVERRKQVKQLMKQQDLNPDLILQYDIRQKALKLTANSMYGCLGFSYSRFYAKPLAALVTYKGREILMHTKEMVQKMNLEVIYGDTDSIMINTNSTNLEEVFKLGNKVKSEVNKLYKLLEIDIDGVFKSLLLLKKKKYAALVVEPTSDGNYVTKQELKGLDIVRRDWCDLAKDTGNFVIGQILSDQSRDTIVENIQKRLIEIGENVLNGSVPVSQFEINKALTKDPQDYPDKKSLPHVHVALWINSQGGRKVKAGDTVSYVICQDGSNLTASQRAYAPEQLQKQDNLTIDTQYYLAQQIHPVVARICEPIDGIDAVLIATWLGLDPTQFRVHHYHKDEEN

Binder	Kd
B1	198 ± 9.2 nM
B2	11.3 ± 0.69 nM
B3	1880 ± 33 nM
B4	146 ± 17 nM
B5	730 ± 51 nM
B6	1130 ± 94 nM
